Assay results as given in patent US20180118816A1 (IGM BIOSCIENCES, published 2018).

Assays:
[1] = molecular target: T1, HIV gp120 antigen (strain HXB2, Immune Tech, cat #IT-001-0022p-PBS) (HIV, strain HXB2, UniProt P04578 33-511); assay: ELISA, gp120 coated at 1 µg/mL, anti-human kappa-HRP detection; value given to the IgG by the sense of the sentence, not by its word order
T1 construct: domain: gp120; Bought protein coated on ELISA plates; also called gp120 HBX2

[2] = molecular target: T1, HIV gp120 antigen (strain HXB2, Immune …); assay: ELISA, interpolated EC10 values; gp120 coating 0.1 µg/mL end of the series
[3] = molecular target: T1, HIV gp120 antigen (strain HXB2, Immune …); assay: ELISA, gp120 coated at 1 µg/mL
[4] = molecular target: T1, HIV gp120 antigen (strain HXB2, Immune …); assay: ELISA, interpolated EC10 values; gp120 coating 1.0 µg/mL end of the series
[5] = molecular target: T1, HIV gp120 antigen (strain HXB2, Immune …); assay: ELISA, gp120 coated at 1 µg/mL, anti-human kappa-HRP detection; value given to the IgM+J by the sense of the sentence, not by its word order
[6] = molecular target: T1, HIV gp120 antigen (strain HXB2, Immune …); assay: ELISA, interpolated EC10 values; gp120 coated at 0.1 µg/mL

| Binder | EC50 [1] [µg/mL] | fold binding relative to the IgG (HIV02G), on a weight basis (from EC10) [2] [fold] | fold better binding than HIV02G, on a molar basis [3] [fold] | fold difference in EC50 against HIV02G, by weight [3] [fold] | fold binding relative to the IgG (HIV02G), on a weight basis (from EC10) [4] [fold] | EC50 [5] [µg/mL] | fold better binding than the IgG (HIV02G), on a molar basis [6] [fold] |
| --- | --- | --- | --- | --- | --- | --- | --- |
| HIV02 IgG (HIV02G) (antibody, V domains shown, also called the IgG) VH: QVQLVQSGGQMKKPGESMRISCQASGYEFIDCTLNWVRLAPGRRPEWMGWLKPRGGAVNYARPLQGRVTMTRDVYSDTAFLELRSLTADDTAVYYCTRGKNCDYNWDFEHWGRGTPVTVSS VL: EIVLTQSPGTLSLSPGETAIISCRTSQYGSLAWYQQRPGQAPRLVIYSGSTRAAGIPDRFSGSRWGPDYNLTIRNLESGDFGLYYCQQYEFFGQGTKVQVDI | 2.3 |  |  |  |  |  |  |
| HIV02 IgM+J (HIV02M+J) (antibody, also called the IgM+J) heavy: QVQLVQSGGQMKKPGESMRISCQASGYEFIDCTLNWVRLAPGRRPEWMGWLKPRGGAVNYARPLQGRVTMTRDVYSDTAFLELRSLTADDTAVYYCTRGKNCDYNWDFEHWGRGTPVTVSSGSASAPTLFPLVSCENSPSDTSSVAVGCLAQDFLPDSITFSWKYKNNSDISSTRGFPSVLRGGKYAATSQVLLPSKDVMQGTDEHVVCKVQHPNGNKEKNVPLPVIAELPPKVSVFVPPRDGFFGNPRKSKLICQATGFSPRQIQVSWLREGKQVGSGVTTDQVQAEAKESGPTTYKVTSTLTIKESDWLSQSMFTCRVDHRGLTFQQNASSMCVPDQDTAIRVFAIPPSFASIFLTKSTKLTCLVTDLTTYDSVTISWTRQNGEAVKTHTNISESHPNATFSAVGEASICEDDWNSGERFTCTVTHTDLPSPLKQTISRPKGVALHRPDVYLLPPAREQLNLRESATITCLVTGFSPADVFVQWMQRGQPLSPEKYVTSAPMPEPQAPGRYFAHSILTVSEEEWNTGETYTCVVAHEALPNRVTERTVDKSTGKPTLYNVSLVMSDTAGTCY light: EIVLTQSPGTLSLSPGETAIISCRTSQYGSLAWYQQRPGQAPRLVIYSGSTRAAGIPDRFSGSRWGPDYNLTIRNLESGDFGLYYCQQYEFFGQGTKVQVDIKRTVAAPSVFIFPPSDEQLKSGTASVVCLLNNFYPREAKVQWKVDNALQSGNSQESVTEQDSKDSTYSLSSTLTLSKADYEKHKVYACEVTHQGLSSPVTKSFNRGEC not shown |  | 20 | 42 | 7 | 5 | 0.32 | 120 |
